The target in this experiment is human IgG from serum (human, UniProt P01857 = IgG part). Kind of experiment: SPR. On the technique in general: In SPR one partner is held on a chip, and binding of the other changes the refractive index at the surface.

Here are results for one molecule from publication PMC10078426 (2022).

B1: protein G only (natural protein)
chain: VDSPIEDTPIIRNGGELTNLLGNSETTLALRNEESATADLTAAAVADTVAAAAAENAGAAAWEAAAAADALAKAKADALKEFNKYGVSDYYKNLINNAKTVEGVKDLQAQVVESAKKARISEATDGLSDFLKSQTPAEDTVKSIELAEAKVLANRELDKYGVSDYHKNLINNAKTVEGVKDLQAQVVESAKKARISEATDGLSDFLKSQTPAEDTVKSIELAEAKVLANRELDKYGVSDYYKNLINNAKTVEGVKALIDEILAALPKTDTYKLILNGKTLKGETTTEAVDAATAEKVFKQYANDNGVDGEWTYDDATKTFTVTEKPEVIDASELTPAVTTYKLVINGKTLKGETTTEAVDAATAEKVFKQYANDNGVDGEWTYDDATKTFTVTEKPEVIDASELTPAVTTYKLVINGKTLKGETTTKAVDAETAEKAFKQYANDNGVDGVWTYDDATKTFTVTEMVTEVPGDAPTEPEKPEASIPLVPLTPATPIAKDDAKKDDTKKEDAKKPEAKKEDAKKAETLPTT
A word on the Kd: it is the free concentration of one partner at which half of the binding sites on the other are occupied at equilibrium, for simple one-to-one binding. Low values mean a tighter complex, high ones a looser complex. As for B1, the Kd turned out to be 35.6 nM.
